According to the supplement of paper PMC9170038:

Columns and labels:
MS2 coat protein [1] = assay: apparent KD of MS2 coat protein, switch OFF state (with FMN for OFF switches, without FMN for ON switches); designed switch direction (-1 OFF switch, 1 ON switch): 1; higher = weaker reporter binding; conditions: FMN input: 0 or 200 uM; Eterna round: R93 (includes R88 designs)
How it was run: (§1)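 Apparent KD was obtained for each design as the median of normalised binding-curve fits over its clusters. RNA switches transcribed on-chip from Illumina sequencing clusters were titrated with SNAP-549-labelled MS2 coat protein (twofold steps, 0.7 or 1.5 nM to 3 µM) in 100 mM Tris-HCl pH 7.5, 80 mM KCl, 4 mM MgCl2, without or with constant ligand.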

MS2 coat protein [2] = assay: apparent KD of MS2 coat protein, switch ON state; designed switch direction (-1 OFF switch, 1 ON switch): 1; higher = weaker reporter binding; conditions: FMN input: 0 or 200 uM; Eterna round: R93 (includes R88 designs)
How it was run: as §1

Sequence	apparent KD of MS2 coat protein (MS2 coat protein [1])	apparent KD of MS2 coat protein (MS2 coat protein [2])
AAAAAACAUGAGGAUCACCCAUGUGCAAAAUUCGCAGGAUAUUUCUCAAUUAAAUGAGAGGAAGAAGGGUGACAAA [Nob's Hobby 28 - Jieux - Same State 1]	55.3 nM	95.9 nM
AAAUAAAUGACUAAGGAUAUCUCAGAGAAAACAUGAGGAUCACCCAUGUAAUAAUAACAUGAGUGAGAGAAGGUAGUCAACAAAC [Same State 2.3 (Pariah 4 -changed stack on 9nt hairpin)]	57.5 nM	24.3 nM
GAUAGACAUGAGGAUCACCCAUGUAGAAUUAUGGGAGGAUAUACAAAGACGAGAGUCAGAGUAGAAGGCCUAGGAC [salish99-ss1-159]	58.6 nM	23.6 nM
UAAAAACAUGAGGAUCACCCAUGUAAGAUAAACACAGGAUAUGCGAAAAGAAAGAAAGAAGCAGAAGGGUGAAAAU [Mat - Same State 1 - Tesla mod - 43]	41.6 nM	15.9 nM
CGGAGACAUGAGGAUCACCCAUGUGAGAAGAGGCGAGGAUAUCGAAAAAAAAAAAAAAAACGAGAAGGCGCGAGAC [salish99-SS1-011]	51.4 nM	28.5 nM
AAGAAACAUGAGGAUCACCCAUGUACCCAAAACGGAGGAUAUGGGAAAGAAAGAAAGAAACCAGAAGGCCGAUGAA [Amyrtaeus]	88.8 nM	25.9 nM
CGAGUACAUGAGGAUCACCCAUGUUAUGAAUUGUCAGGAUAUGGAUAAAGGUGACAUGCGCCAGAAGGGACGUAUG [JR_SS001_Sub1006]	43.7 nM	36.9 nM
AUUCCAAAUAGUCAGGAUAUCAAAAAUAAGACAUGAGGAUCACCCAUGUACUUAGUAAAAGUAAAUGAGAAGGGACAGGGUGUAA [JR_SS002_Sub404]	19.4 nM	12.9 nM
AAAUAACAUGAGGAUCACCCAUGUUGCAACGGUACAGGAUAUGUGGGUGAAAAUAGCAUGGCAGAAGGGUAGUGUA [SameState1 Malc#29]	67.8 nM	130 nM
AAGAAACAUGAGGAUCACCCAUGUGAGAUAAACACAGGAUAUGCAAAAGAAAGAAAGAAAGCAGAAGGGUGAAGAA [Mat - Same State 1 - Tesla mod - 51]	129 nM	21.6 nM
AAAAGACAUGAGGAUCACCCAUGUGAAAACAUACAAGGAUAUGUGUGGAAACCGUACUAUACAGAAGGUGUAUGUC [SS1 - 85]	28.5 nM	19.7 nM
GAAAAACAUGAGGAUCACCCAUGUAGAAAUAUGGGAGGAUAUACAAAGACGAAAGUCAAAGUAGAAGGCCCAUAAG [Starry Same State 1.6 (mat747 round 1 mod)]	16.2 nM	13.7 nM
GUAUAUAUAAGACAGGAUAUCCGAAAGUAAACAUGAGGAUCACCCAUGUAAAGAAAGAAACUCAUGGAGAAGGGUCAAUAUAUAC [Mat - Same State 2 - Tesla mod - D83]	66.7 nM	22.2 nM
AAAGAAAAACUAGAGGAUAUCUGAAUGGUAACAUGAGGAUCACCCAUGUGAAGAAAGGAACAUGAGGAGAAGGCUAGAAGAAAAA [JL Nando mod 17]	35.4 nM	11.4 nM
GAAAAACAUGAGGAUCACCCAUGUGAUAACAUGGGAGGAUAUACAUGGACGAUAGUCAAAGUAGAAGGCCUAAAAG [Garnet 62]	32.1 nM	104 nM
AUAAUAUUAAGCUAGGAUAUACUAAAGUAAACAUGAGGAUCACCCAUGUAAAAAAAAAAACUCAUGUAGAAGGAGCAUAAAUAAA [moonwalk 9]	15 nM	12.2 nM
CGUGAACAUGAGGAUCACCCAUGUGAAAAACAUAGAGGAUAUGUCACGUGAGUGUAAAAGACAGAAGGCUAUCGUG [Mod 3 of Round 1 starryjess' Mod pf Nando]	74.1 nM	36.5 nM
